According to US8541552:

Target: T1, LTα1β2 (human, UniProt P01374)
T1 chain 1: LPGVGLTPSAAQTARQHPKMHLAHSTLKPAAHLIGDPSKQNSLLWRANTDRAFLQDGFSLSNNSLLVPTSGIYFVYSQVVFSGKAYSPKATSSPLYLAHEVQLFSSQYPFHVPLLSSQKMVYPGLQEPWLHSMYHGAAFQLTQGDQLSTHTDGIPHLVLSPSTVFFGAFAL
T1 chain 2: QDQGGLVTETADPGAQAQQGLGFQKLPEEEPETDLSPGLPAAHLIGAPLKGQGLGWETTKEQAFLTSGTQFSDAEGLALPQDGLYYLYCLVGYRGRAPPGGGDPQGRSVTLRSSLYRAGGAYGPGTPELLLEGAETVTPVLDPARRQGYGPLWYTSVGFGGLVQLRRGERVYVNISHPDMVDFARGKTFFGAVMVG
Assay: ELISA

binding result: no binding
B1: TNFRII.Fc (protein)
chain: LPAQVAFTPYAPEPGSTCRLREYYDQTAQMCCSKCSPGQHAKVFCTKTSDTVCDSCEDSTYTQLWNWVPECLSCGSRCSSDQVETQACTREQNRICTCRPGWYCALSKQEGCRLCAPLRKCRPGFGVARPGTETSDVVCKPCAPGTFSNTTSSTDICRPHQICNVVAIPGNASMDAVCTSTSPTRSMAPGAVHLPQPVSTRSQHTQPTPEPSTAPSTSFLLPMGPSPPAEGSTGD
